From article PMC4014808

Key:
[1] = system: L3MBTL2; test: ELISA; details: ELISA: 20 mM Tris-HCl pH 7.5, 150 mM NaCl, 20 mM KCl, 0.02% IGEPAL, 1 mM DTT, 1 h at room temperature, 50 uL of 50 nM biotinylated DNA per well
[2] = system: MPG; test: ELISA; details: all C outside primers replaced by 5-formylcytosine (dfCTP in PCR); ELISA: 20 mM Tris-HCl pH 7.5, 150 mM NaCl, 20 mM KCl, 0.02% IGEPAL, 1 mM DTT, 1 h at room temperature; 50 uL of 50 nM biotinylated DNA per well

## Fgf15 promoter probe, 5fC
[1]; all C outside primers replaced by 5-formylcytosine (dfCTP in PCR)
  Kd: 37.1 nM
[2]
  Kd: 13.4 nM

## Fgf15 promoter probe, C
[1]
  Kd: 81.2 nM
